Where no end group is shown, it is not given here.

In test [1] the target is T1, Fibrinogen fragment D (human, UniProt P02671 130-216; P02675 164-491; P02679 114-432, limits assumed).
T1 construct: domain: Fragment D (or D-domain); Made by plasmin digestion of human fibrinogen and purified on GPRPAA beads; holds the C-terminal polymerization pockets without the N-terminal knobs; immobilised by amine coupling on the SPR chip; also called D-domain
T1 sequence (looked up) 1: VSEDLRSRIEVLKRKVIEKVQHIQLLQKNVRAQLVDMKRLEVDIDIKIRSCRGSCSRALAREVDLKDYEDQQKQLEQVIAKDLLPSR
T1 sequence (looked up) 2: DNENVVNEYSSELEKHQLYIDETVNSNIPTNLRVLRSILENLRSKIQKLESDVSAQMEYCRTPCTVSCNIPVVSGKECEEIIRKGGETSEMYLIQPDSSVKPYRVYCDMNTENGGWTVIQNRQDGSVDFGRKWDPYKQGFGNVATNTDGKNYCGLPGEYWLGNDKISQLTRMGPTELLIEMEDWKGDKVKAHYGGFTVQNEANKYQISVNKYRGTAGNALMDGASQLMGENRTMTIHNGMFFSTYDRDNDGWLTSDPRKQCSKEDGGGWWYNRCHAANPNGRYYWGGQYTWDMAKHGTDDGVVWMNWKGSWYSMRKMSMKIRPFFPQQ
T1 sequence (looked up) 3: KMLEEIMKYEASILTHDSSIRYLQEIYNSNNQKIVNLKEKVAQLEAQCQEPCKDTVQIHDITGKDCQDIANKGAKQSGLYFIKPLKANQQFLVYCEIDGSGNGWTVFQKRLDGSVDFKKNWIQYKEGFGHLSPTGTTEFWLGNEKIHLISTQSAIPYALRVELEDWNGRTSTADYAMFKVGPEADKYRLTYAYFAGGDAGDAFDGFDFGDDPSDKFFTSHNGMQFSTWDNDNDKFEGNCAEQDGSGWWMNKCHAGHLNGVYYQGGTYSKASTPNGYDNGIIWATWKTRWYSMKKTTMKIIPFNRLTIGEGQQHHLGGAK
Kind of test: SPR maximal binding response against peptide concentration, fibrinogen fragment D immobilised. The method, then: Upon stabilization of the baseline signal, kinetic binding experiments were run in duplicate with the peptide variants as the flow analytes. Five varying concentrations for each peptide (0.94 μM to 150 μM) were flowed at 25 μL/min for 4 min immediately followed by a 10 min dissociation phase. Between each run, the surface was regenerated with 1M sodium bromide and 50 mM sodium acetate (pH 6.0). SPR experiments were performed three times with varying peptide injection order to rule out binding trends associated with injection sequence. Peptide solutions were incubated with tris(2-carboxyethyl)phosphine (TCEP) immobilized on agarose beads (Thermo Fisher Scientific, Inc; Rockland, Ill.) to ensure reduction of any disulfide bonds between C-terminal cysteines.
Prior to analysis, all sensorgrams were inspected for abnormalities (i.e. baseline drift, air spikes, or irregular deviations) and excluded. Reference cell responses were subtracted from corresponding active response curves. […] The resulting curves were then analyzed and fitted to the kinetic models. Kinetic modeling and simulations were performed with ClampXP software using the Langmuir 1:1 model or the heterogeneous ligand model; globally fitted parameters were determined for each kinetic data set per peptide. Equilibrium binding constants were calculated from fitted kinetic constants.

The target of test [2] is T1, Fibrinogen fragment D. Put plainly: affinity purification from plasmin-digested fibrinogen, elution with 1 M sodium bromide. The protocol: Human fibrinogen (# FIB3, Enzyme Research Laboratories, South Bend, Ind.) at 2 mg/mL was digested with 0.1 U/mL human plasmin (Enzyme Research Laboratories) in HEPES+Ca buffer (150 mM NaCl, 5 mM CaCl₂, 25 mM HEPES, pH 7.4) overnight at room temperature. Fragment D (or D-domain) was isolated as previously described, with slight modifications, using a polymeric resin with covalently linked GPRPAA (SEQ ID NO:10) peptide (Kostelansky M S, et al. Biochemistry 2002, 41(40):12124-12132). Briefly, the plasmin-digested fibrinogen and GPRPAA-beads were incubated for 30 min, with occasional agitation. The unbound protein fragments were removed with exhaustive washing with HEPES+Ca buffer. Fragment D was eluted using 1 M sodium bromide, 50 mM sodium acetate, pH 5.3 and exchanged back into HEPES+Ca buffer using a centrifugal filter with MWCO 10,000.

Test [3] concerns the target T1, Fibrinogen fragment D. Put plainly: SPR competition with GPRP-FnIII9-10 on immobilised fragment D.

B1: GPSPAAC (peptide)
peptide: GPSPAAC
notes: Synthetic (GenScript); negative control; also called negative control peptide
On to B1, for which the binding result in the test with Fibrinogen fragment D [1] was “no binding (tested: just below 10^-4 M (last point))”.
For the molecule GPRPAA (not fully specified, also called GPRPAA-beads) [GPRPAA peptide covalently linked to a polymeric resin], the binding result with Fibrinogen fragment D [2] is recorded as “binds”.

B2: GPRP tetrapeptide (peptide)
peptide: GPRP
notes: Synthetic (Genscript); also called A-knob tetrapeptide mimetic; soluble GPRP peptide
On to B2, for which the binding result with Fibrinogen fragment D [3] is recorded as “binds”.

Source of the values: US20120114682A1 (GEORGIA TECH RESEARCH, published 2012).
